Test [1] concerns the target GARP S138G / TGF-β1 complex (human, UniProt Q14392 20-662; P01137 30-390). Briefly: FACS titration on transfected 293T; EC50 mutant / EC50 WT [cont.) B]. As to the method:
(§1) Intensities of staining at each concentration of antibody relative to the maximal intensity measured at 5 μg/ml were determined as follows:
(§2) The relative staining intensities were plotted according to the concentration of antibody used for staining, and a non-linear regression analysis was used with the Prism software to determine an EC₅₀ value for binding of the antibody to the WT and to each of the various mutant GARP/TGF-β1 complexes. If the ratio between the EC₅₀ measured on the mutant and the EC₅₀ measured on the WT was >2, the mutation was considered to induce a reduced avidity for binding by the antibody. The ratio of EC₅₀ (mutant vs WT) for MHG-8 and LHG-10 are indicated below each mutation on FIG. 19, parts A and B, respectively.

The target of test [2] is GARP E189A / TGF-β1 complex (human, UniProt Q14392 20-662; P01137 30-390). The description is as above. As to the method:
as §1, §2

Test [3] deals with GARP / TGF-β1 Q272Y complex (human, UniProt Q14392 20-662; P01137 30-390). The test is described as above. As for the experimental part:
as §1, §2

The target in test [4] is GARP / TGF-β1 Q269Y complex (human, UniProt Q14392 20-662; P01137 30-390). Described as above. As for the experimental part: as §1, §2
The target in test [5] is GARP T165A / TGF-β1 complex (human, UniProt Q14392 20-662; P01137 30-390). Described as above. As to the method: as §1, §2
The target in test [6] is GARP G139N / TGF-β1 complex (human, UniProt Q14392 20-662; P01137 30-390). The description is as above. As for the experimental part: as §1, §2
Test [7] has as its target GARP / TGF-β1 H270Y complex (human, UniProt Q14392 20-662; P01137 30-390). Described as above. As to the method: as §1, §2
In test [8] the target is GARP G118L/G119L / TGF-β1 complex (human, UniProt Q14392 20-662; P01137 30-390). The description is as above. As for the experimental part:
as §1, §2

In test [9] the target is GARP M111T/A112G/T113M / TGF-β1 complex (human, UniProt Q14392 20-662; P01137 30-390). The description is as above. As to the method:
as §1, §2

Test [10] concerns the target GARP R166M/H167E / TGF-β1 complex (human, UniProt Q14392 20-662; P01137 30-390). The test is described as above. As for the experimental part: as §1, §2
The target of test [11] is GARP R143Y / TGF-β1 complex (human, UniProt Q14392 20-662; P01137 30-390). The description is as above. As to the method: as §1, §2
In test [12] the target is GARP / TGF-β1 K338E complex (human, UniProt Q14392 20-662; P01137 30-390). The description is as above. As for the experimental part: as §1, §2
The target in test [13] is GARP R170A / TGF-β1 complex (human, UniProt Q14392 20-662; P01137 30-390). The description is as above. As for the experimental part: as §1, §2
The target in test [14] is GARP Y137H/S138G/G139N / TGF-β1 complex (human, UniProt Q14392 20-662; P01137 30-390). Briefly: FACS 293T, 5 ug/ml, normalised to anti-HA. From the text:
Resolution of the crystal structure of MHG-8 Fab/GARP/TGF-β1 complexes and analysis with the CONTACT software allowed the identification of 22 amino-acids in GARP, 8 amino-acids in LAP and 6 amino-acids in mature TGF-β1 that are located less than 5 Å away from an amino-acid of the light or heavy chain of the MHG-8 Fab (Tables 7a, b and c, and Table 8). Directed mutagenesis was used to construct plasmids encoding HA-tagged forms of GARP or TGF-β1 that are mutated at one, two, or three of these 36 positions (all mutations constructed are indicated in Table 8). […] Antibodies were used at a saturating concentration of 5 μg/ml for labeling. Binding of each antibody to a given mutant GARP/TGF-β1 complex was compared to their binding to wild type (WT) complexes, by determining an I_{m/wt} value (i.e. intensity of binding to mutant by comparison to WT). This value was calculated as follows: I_{m/wt} of antibody X=[Geom on mutant−Geom on control]/[Geom on WT−Geom on control]
The level of residual binding of anti-GARP or anti-LAP antibodies to each mutant was then calculated by comparison to WT, taking into account the expression levels of mutant and WT forms as measured with anti-HA antibodies. Residual binding was calculated as follows: Residual binding by an anti-GARP or anti-LAP antibody=[I_{m/wt} with anti-GARP or anti-LAP antibody]/[I_{m/wt} with anti-HA antibody]

The target in test [15] is T1, recombinant soluble human GARP-TGFβ1 complex (human, UniProt Q14392 20-628; P01137 30-390).
T1 construct: co-expressed in HEK293E, purified by the Strep-Tag; TGFβ consists of LAP and mature TGFβ; also called shGARP-TGFβ; rhGARP-TGFβ
Briefly: SPR (Biacore), hGARP-TGFβ1 immobilised. For orientation: SPR reads the build-up and loss of mass on a sensor chip optically.

T1 sequence (Q14392 other isoform, or with tags, fused parts or gaps limits assumed, chain 1 of 2): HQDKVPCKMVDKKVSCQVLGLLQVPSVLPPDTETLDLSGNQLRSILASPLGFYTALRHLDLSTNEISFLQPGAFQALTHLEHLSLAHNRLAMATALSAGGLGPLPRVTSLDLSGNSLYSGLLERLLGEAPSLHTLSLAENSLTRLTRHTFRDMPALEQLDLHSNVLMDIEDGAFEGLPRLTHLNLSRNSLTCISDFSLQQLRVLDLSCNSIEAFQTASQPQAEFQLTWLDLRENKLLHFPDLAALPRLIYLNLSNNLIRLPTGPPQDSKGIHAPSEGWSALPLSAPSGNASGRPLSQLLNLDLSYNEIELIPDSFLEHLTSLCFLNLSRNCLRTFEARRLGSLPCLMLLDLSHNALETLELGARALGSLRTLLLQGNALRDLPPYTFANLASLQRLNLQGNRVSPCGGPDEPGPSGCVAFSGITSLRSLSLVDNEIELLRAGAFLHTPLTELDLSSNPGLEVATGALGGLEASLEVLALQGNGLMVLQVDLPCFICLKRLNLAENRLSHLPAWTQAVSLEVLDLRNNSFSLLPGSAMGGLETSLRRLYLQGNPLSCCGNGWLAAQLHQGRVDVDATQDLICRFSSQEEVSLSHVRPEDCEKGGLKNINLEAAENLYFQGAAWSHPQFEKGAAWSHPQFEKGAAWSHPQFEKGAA
T1 sequence (P01137 30-390 limits assumed, chain 2 of 2): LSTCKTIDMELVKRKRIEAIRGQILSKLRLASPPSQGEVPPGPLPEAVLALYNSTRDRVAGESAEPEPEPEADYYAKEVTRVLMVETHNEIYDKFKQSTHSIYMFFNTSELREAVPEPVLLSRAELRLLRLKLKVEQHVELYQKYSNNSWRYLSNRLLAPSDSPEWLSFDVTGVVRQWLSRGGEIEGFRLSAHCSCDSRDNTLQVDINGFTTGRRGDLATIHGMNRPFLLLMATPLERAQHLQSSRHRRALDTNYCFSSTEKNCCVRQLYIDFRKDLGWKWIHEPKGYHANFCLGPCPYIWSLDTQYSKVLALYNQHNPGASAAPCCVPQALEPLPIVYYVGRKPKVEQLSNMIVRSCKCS
Sequence of GARP G118L/G119L / TGF-β1 complex (Q14392 20-662 G118L/G119L limits assumed, chain 1 of 2): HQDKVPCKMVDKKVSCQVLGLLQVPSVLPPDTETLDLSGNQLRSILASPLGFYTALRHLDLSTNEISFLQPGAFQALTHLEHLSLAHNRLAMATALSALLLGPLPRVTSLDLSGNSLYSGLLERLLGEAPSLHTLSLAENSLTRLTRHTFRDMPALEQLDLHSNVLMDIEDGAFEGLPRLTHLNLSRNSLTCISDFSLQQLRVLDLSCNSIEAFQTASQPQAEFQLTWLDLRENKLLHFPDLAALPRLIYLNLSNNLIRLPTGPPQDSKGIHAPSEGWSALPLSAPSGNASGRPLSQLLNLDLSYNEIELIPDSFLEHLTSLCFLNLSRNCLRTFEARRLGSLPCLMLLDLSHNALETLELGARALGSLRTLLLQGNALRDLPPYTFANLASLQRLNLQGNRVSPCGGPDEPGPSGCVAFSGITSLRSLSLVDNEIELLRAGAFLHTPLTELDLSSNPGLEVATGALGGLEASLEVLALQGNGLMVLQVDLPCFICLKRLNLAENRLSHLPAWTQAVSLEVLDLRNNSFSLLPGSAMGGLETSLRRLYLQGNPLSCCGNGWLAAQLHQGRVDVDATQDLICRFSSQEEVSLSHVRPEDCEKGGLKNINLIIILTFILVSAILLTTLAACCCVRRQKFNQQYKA
Sequence of GARP G118L/G119L / TGF-β1 complex (P01137 30-390 limits assumed, chain 2 of 2): as the sequence (P01137 30-390 limits assumed, chain 2 of 2) above
Sequence of GARP Y137H/S138G/G139N / TGF-β1 complex (Q14392 20-662 Y137H/S138G/G139N limits assumed, chain 1 of 2): as the sequence (Q14392 20-662 G118L/G119L limits assumed, chain 1 of 2) above, with L99G, L100G, Y118H, S119G, G120N counted along it
Sequence of GARP Y137H/S138G/G139N / TGF-β1 complex (P01137 30-390 limits assumed, stated change not applied, chain 2 of 2): as the sequence (P01137 30-390 limits assumed, chain 2 of 2) above
Sequence of GARP T165A / TGF-β1 complex (Q14392 20-662 T165A limits assumed, chain 1 of 2): as the sequence (Q14392 20-662 G118L/G119L limits assumed, chain 1 of 2) above, with L99G, L100G, T146A counted along it
Sequence of GARP T165A / TGF-β1 complex (P01137 30-390 limits assumed, chain 2 of 2): as the sequence (P01137 30-390 limits assumed, chain 2 of 2) above

B1: LHG-10 (antibody, human IgG1, V domains shown)
VH: EVQLVQPGAELRNSGASVKVSCKASGYRFTSYYIDWVRQAPGQGLEWMGRIDPEDGGTKYAQKFQGRVTFTADTSTSTAYVELSSLRSEDTAVYYCARNEWETVVVGDLMYEYEYWGQGTQVTVSS
VL: DIQMTQSPTSLSASLGDRVTITCQASQSISSYLAWYQQKPGQAPKLLIYGASRLQTGVPSRFSGSGSGTSFTLTISGLEAEDAGTYYCQQYDSLPVTFGQGTKVELK
notes: llama-derived V regions in a full human IgG1
As for B1, the “Ratio of EC50 (mutant / wt)” value is 0.6 in test [1]; 0.8 in [2]; 0.9 in test [3]; 0.8 in [4]; 1 in test [5]; 1.2 in [6]. For the same molecule, the “Ratio of EC50 (mutant / wt)” value in [7] turned out to be 0.7; in test [8], 0.8; in test [9], 1.2; in test [10] it was 1.5; in [11], 1.6; in test [12] it was 7.2. The “Ratio of EC50 (mutant / wt)” value in test [13] is 1.5. Besides, in test [14], the “residual binding (% of WT)” value worked out at 6%. The Kd (in general, the constant that tells how readily two partners part at equilibrium) in test [15] was determined as 0.131 nM. The “fold improvement of KD (reference LHG-10)” value in [15] stood at 1 fold. Also, in test [15], the “fold improvement of ka (reference LHG-10)” value was found to be 1 fold. Further, in [15], the “fold improvement of kd (reference LHG-10)” value is 1 fold. Further, in test [15], the koff (usually the rate constant with which the complex falls apart) was 3.12e-05 s⁻¹. For the same molecule, the kon (as a rule, a measure of how fast the partners come together) in [15] turned out to be 239000 M⁻¹ s⁻¹.

These data come from patent US20160251438A1 (LUDWIG INSTITUTE FOR CANCER RESEARCH, published 2016).
